According to patent publication US20180244726A1:

Target: large hepatitis B surface protein (hepatitis B virus)
Assay: cell-based or functional assay

**Q.** With neutralizing monoclonal antibody Ma18/7 as the substance, how does the inhibition of HBV infection of HepG2-hNTCP cells, secreted HBeAg read?
**A.** The inhibition of HBV infection of HepG2-hNTCP cells, secreted HBeAg was greater than 90%.
